# Measured values published in PMC5310709.
# Like-named read-outs stand apart in the source and are kept apart here.
# How the values were obtained:
# Assay in all cases: cross-linking
# [1] = biological target: Z protein with N-epsilon-fluoroacetyllysine at residue 24, fused to maltose binding protein
# [2] = biological target: Z protein with N-epsilon-fluoroacetyllysine at residue 24, fused to maltose binding protein; remark: listed apart in the source
# [3] = biological target: Z protein with N-epsilon-fluoroacetyllysine at residue 6, fused to maltose binding protein
# [4] = biological target: Z protein with N-epsilon-fluoroacetyllysine at residue 6, fused to maltose binding protein; remark: listed apart in the source
# [5] = biological target: Z protein with Cys at residue 6, fused to maltose binding protein
# [6] = biological target: Z protein with Cys at residue 6, fused to maltose binding protein; remark: listed apart in the source
substance,measurement,setting,value
Zspa Affibody (Afb) with Cys at position 7 (designed binder),crosslinking yield,[1],12%
same,crosslinking yield,[2],34%
Zspa Affibody (Afb) with Cys at position 36 (designed binder),crosslinking yield,[3],24%
same,crosslinking yield,[4],64%
Zspa Affibody (Afb) with N-epsilon-fluoroacetyllysine at position 36 (designed binder),crosslinking yield,[5],33%
same,crosslinking efficiency,[6],88%
